Measurements as given in US20230357348A1 (AstraZeneca / MedImmune, published 2023).
Starred links: 1 amine or outer side, 2 acyl side, 3 side chain; linkers in the order of their positions; H or OH if unused. Non-standard residues stand in square brackets, D forms with d. Groups on a side chain read outwards from the residue. No end group written: not given here. *: point of attachment. C20 diacid = O=C(O)CCCCCCCCCCCCCCCCCCC(=O)*; C18 diacid = O=C(O)CCCCCCCCCCCCCCCCC(=O)*; γGlu = O=C(O)[C@H](CCC(=O)[*:2])N[*:1]; αMeF = C[C@](N)(Cc1ccccc1)C(=O)O; AEEA = NCCOCCOCC(=O)O; Aib = CC(C)(N)C(=O)O

Legend:
[1] = biological target: human GLP-1 receptor (hGLP-1R) (human, UniProt P43220 24-463); assay: cell-based or functional assay
[2] = biological target: human glucagon receptor (hGCGR) (human, UniProt P47871 26-477); assay: cell-based or functional assay
Sequence of human glucagon receptor (hGCGR) (P47871 26-477): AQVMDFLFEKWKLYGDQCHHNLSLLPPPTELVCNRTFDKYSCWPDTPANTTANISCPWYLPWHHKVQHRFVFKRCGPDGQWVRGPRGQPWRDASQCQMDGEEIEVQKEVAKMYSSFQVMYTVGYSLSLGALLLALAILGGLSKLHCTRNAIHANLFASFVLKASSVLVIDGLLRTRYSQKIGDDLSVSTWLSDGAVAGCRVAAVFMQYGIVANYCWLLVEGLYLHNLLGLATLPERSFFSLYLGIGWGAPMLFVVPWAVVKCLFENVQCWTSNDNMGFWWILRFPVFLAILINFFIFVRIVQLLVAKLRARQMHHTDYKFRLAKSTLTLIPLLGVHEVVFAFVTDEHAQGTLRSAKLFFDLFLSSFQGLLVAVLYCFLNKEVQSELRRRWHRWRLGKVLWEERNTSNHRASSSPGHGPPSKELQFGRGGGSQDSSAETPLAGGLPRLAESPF

hGLP-1R EC50 (pM) [1] [pM]	hGluc-R EC50 (pM) [2] [pM]	Binder
33.9	16.4	H[Aib]QGTFTSDVSK[αMeF]LDTK([AEEA-AEEA-γGlu-γGlu-C18 diacid])RAQDFVAWLEA[Aib]G-OH (N-terminus assumed; SMILES CC(C)C[C@H](NC(=O)[C@H](Cc1c[nH]c2ccccc12)NC(=O)[C@H](C)NC(=O)[C@@H](NC(=O)[C@H](Cc1ccccc1)NC(=O)[C@H](CC(=O)O)NC(=O)[C@H](CCC(N)=O)NC(=O)[C@H](C)NC(=O)[C@H](CCCNC(=N)N)NC(=O)[C@H](CCCCNC(=O)COCCOCCNC(=O)COCCOCCNC(=O)CC[C@H](NC(=O)CC[C@H](NC(=O)CCCCCCCCCCCCCCCCC(=O)O)C(=O)O)C(=O)O)NC(=O)[C@@H](NC(=O)[C@H](CC(=O)O)NC(=O)[C@H](CC(C)C)NC(=O)[C@](C)(Cc1ccccc1)NC(=O)[C@H](CCCCN)NC(=O)[C@H](CO)NC(=O)[C@@H](NC(=O)[C@H](CC(=O)O)NC(=O)[C@H](CO)NC(=O)[C@@H](NC(=O)[C@H](Cc1ccccc1)NC(=O)[C@@H](NC(=O)CNC(=O)[C@H](CCC(N)=O)NC(=O)C(C)(C)NC(=O)[C@@H](N)Cc1c[nH]cn1)[C@@H](C)O)[C@@H](C)O)C(C)C)[C@@H](C)O)C(C)C)C(=O)N[C@@H](CCC(=O)O)C(=O)N[C@@H](C)C(=O)NC(C)(C)C(=O)NCC(=O)O) [Peptide 417]
23.1	36.9	H[Aib]QGTFTSDVSK[αMeF]LDKK([AEEA-AEEA-γGlu-C18 diacid])RAQDFVRWLL[Aib]E-NH2 (N-terminus assumed; SMILES CC(C)C[C@H](NC(=O)[C@H](Cc1c[nH]c2ccccc12)NC(=O)[C@H](CCCNC(=N)N)NC(=O)[C@@H](NC(=O)[C@H](Cc1ccccc1)NC(=O)[C@H](CC(=O)O)NC(=O)[C@H](CCC(N)=O)NC(=O)[C@H](C)NC(=O)[C@H](CCCNC(=N)N)NC(=O)[C@H](CCCCNC(=O)COCCOCCNC(=O)COCCOCCNC(=O)CC[C@H](NC(=O)CCCCCCCCCCCCCCCCC(=O)O)C(=O)O)NC(=O)[C@H](CCCCN)NC(=O)[C@H](CC(=O)O)NC(=O)[C@H](CC(C)C)NC(=O)[C@](C)(Cc1ccccc1)NC(=O)[C@H](CCCCN)NC(=O)[C@H](CO)NC(=O)[C@@H](NC(=O)[C@H](CC(=O)O)NC(=O)[C@H](CO)NC(=O)[C@@H](NC(=O)[C@H](Cc1ccccc1)NC(=O)[C@@H](NC(=O)CNC(=O)[C@H](CCC(N)=O)NC(=O)C(C)(C)NC(=O)[C@@H](N)Cc1c[nH]cn1)[C@@H](C)O)[C@@H](C)O)C(C)C)C(C)C)C(=O)N[C@@H](CC(C)C)C(=O)NC(C)(C)C(=O)N[C@@H](CCC(=O)O)C(N)=O) [Peptide 420]
26.1	2220	H[Aib]QGTFTSDVSK[αMeF]LDKK([AEEA-AEEA-γGlu-C18 diacid])RAQDFVRWLK[Aib]TE-OH (N-terminus assumed; SMILES CC(C)C[C@H](NC(=O)[C@H](Cc1c[nH]c2ccccc12)NC(=O)[C@H](CCCNC(=N)N)NC(=O)[C@@H](NC(=O)[C@H](Cc1ccccc1)NC(=O)[C@H](CC(=O)O)NC(=O)[C@H](CCC(N)=O)NC(=O)[C@H](C)NC(=O)[C@H](CCCNC(=N)N)NC(=O)[C@H](CCCCNC(=O)COCCOCCNC(=O)COCCOCCNC(=O)CC[C@H](NC(=O)CCCCCCCCCCCCCCCCC(=O)O)C(=O)O)NC(=O)[C@H](CCCCN)NC(=O)[C@H](CC(=O)O)NC(=O)[C@H](CC(C)C)NC(=O)[C@](C)(Cc1ccccc1)NC(=O)[C@H](CCCCN)NC(=O)[C@H](CO)NC(=O)[C@@H](NC(=O)[C@H](CC(=O)O)NC(=O)[C@H](CO)NC(=O)[C@@H](NC(=O)[C@H](Cc1ccccc1)NC(=O)[C@@H](NC(=O)CNC(=O)[C@H](CCC(N)=O)NC(=O)C(C)(C)NC(=O)[C@@H](N)Cc1c[nH]cn1)[C@@H](C)O)[C@@H](C)O)C(C)C)C(C)C)C(=O)N[C@@H](CCCCN)C(=O)NC(C)(C)C(=O)N[C@H](C(=O)N[C@@H](CCC(=O)O)C(=O)O)[C@@H](C)O) [Peptide 423]
87.3	180	H[Aib]QGTFTSDVSK[αMeF]LDRK([AEEA-AEEA-γGlu-C18 diacid])RAQDFVRWLL[Aib]TE-OH (N-terminus assumed; SMILES CC(C)C[C@H](NC(=O)[C@H](Cc1c[nH]c2ccccc12)NC(=O)[C@H](CCCNC(=N)N)NC(=O)[C@@H](NC(=O)[C@H](Cc1ccccc1)NC(=O)[C@H](CC(=O)O)NC(=O)[C@H](CCC(N)=O)NC(=O)[C@H](C)NC(=O)[C@H](CCCNC(=N)N)NC(=O)[C@H](CCCCNC(=O)COCCOCCNC(=O)COCCOCCNC(=O)CC[C@H](NC(=O)CCCCCCCCCCCCCCCCC(=O)O)C(=O)O)NC(=O)[C@H](CCCNC(=N)N)NC(=O)[C@H](CC(=O)O)NC(=O)[C@H](CC(C)C)NC(=O)[C@](C)(Cc1ccccc1)NC(=O)[C@H](CCCCN)NC(=O)[C@H](CO)NC(=O)[C@@H](NC(=O)[C@H](CC(=O)O)NC(=O)[C@H](CO)NC(=O)[C@@H](NC(=O)[C@H](Cc1ccccc1)NC(=O)[C@@H](NC(=O)CNC(=O)[C@H](CCC(N)=O)NC(=O)C(C)(C)NC(=O)[C@@H](N)Cc1c[nH]cn1)[C@@H](C)O)[C@@H](C)O)C(C)C)C(C)C)C(=O)N[C@@H](CC(C)C)C(=O)NC(C)(C)C(=O)N[C@H](C(=O)N[C@@H](CCC(=O)O)C(=O)O)[C@@H](C)O) [Peptide 421]
88.1	222	H[Aib]QGTFTSDVSK[αMeF]LDTK([AEEA-AEEA-γGlu-γGlu-C20 diacid])RAQDFVAWLEA[Aib]G-OH (N-terminus assumed; SMILES CC(C)C[C@H](NC(=O)[C@H](Cc1c[nH]c2ccccc12)NC(=O)[C@H](C)NC(=O)[C@@H](NC(=O)[C@H](Cc1ccccc1)NC(=O)[C@H](CC(=O)O)NC(=O)[C@H](CCC(N)=O)NC(=O)[C@H](C)NC(=O)[C@H](CCCNC(=N)N)NC(=O)[C@H](CCCCNC(=O)COCCOCCNC(=O)COCCOCCNC(=O)CC[C@H](NC(=O)CC[C@H](NC(=O)CCCCCCCCCCCCCCCCCCC(=O)O)C(=O)O)C(=O)O)NC(=O)[C@@H](NC(=O)[C@H](CC(=O)O)NC(=O)[C@H](CC(C)C)NC(=O)[C@](C)(Cc1ccccc1)NC(=O)[C@H](CCCCN)NC(=O)[C@H](CO)NC(=O)[C@@H](NC(=O)[C@H](CC(=O)O)NC(=O)[C@H](CO)NC(=O)[C@@H](NC(=O)[C@H](Cc1ccccc1)NC(=O)[C@@H](NC(=O)CNC(=O)[C@H](CCC(N)=O)NC(=O)C(C)(C)NC(=O)[C@@H](N)Cc1c[nH]cn1)[C@@H](C)O)[C@@H](C)O)C(C)C)[C@@H](C)O)C(C)C)C(=O)N[C@@H](CCC(=O)O)C(=O)N[C@@H](C)C(=O)NC(C)(C)C(=O)NCC(=O)O) [Peptide 418]
96.9	264	H[Aib]QGTFTSDVSK[αMeF]LDTK([AEEA-AEEA-γGlu-C18 diacid])RAQDFVRWLE[Aib]E-OH (N-terminus assumed; SMILES CC(C)C[C@H](NC(=O)[C@H](Cc1c[nH]c2ccccc12)NC(=O)[C@H](CCCNC(=N)N)NC(=O)[C@@H](NC(=O)[C@H](Cc1ccccc1)NC(=O)[C@H](CC(=O)O)NC(=O)[C@H](CCC(N)=O)NC(=O)[C@H](C)NC(=O)[C@H](CCCNC(=N)N)NC(=O)[C@H](CCCCNC(=O)COCCOCCNC(=O)COCCOCCNC(=O)CC[C@H](NC(=O)CCCCCCCCCCCCCCCCC(=O)O)C(=O)O)NC(=O)[C@@H](NC(=O)[C@H](CC(=O)O)NC(=O)[C@H](CC(C)C)NC(=O)[C@](C)(Cc1ccccc1)NC(=O)[C@H](CCCCN)NC(=O)[C@H](CO)NC(=O)[C@@H](NC(=O)[C@H](CC(=O)O)NC(=O)[C@H](CO)NC(=O)[C@@H](NC(=O)[C@H](Cc1ccccc1)NC(=O)[C@@H](NC(=O)CNC(=O)[C@H](CCC(N)=O)NC(=O)C(C)(C)NC(=O)[C@@H](N)Cc1c[nH]cn1)[C@@H](C)O)[C@@H](C)O)C(C)C)[C@@H](C)O)C(C)C)C(=O)N[C@@H](CCC(=O)O)C(=O)NC(C)(C)C(=O)N[C@@H](CCC(=O)O)C(=O)O) [Peptide 419]
27.6	123	H[Aib]QGTFTSDVSK[αMeF]LDRK([AEEA-AEEA-γGlu-C18 diacid])RAQDFVRWLL[Aib]TE-NH2 (N-terminus assumed; SMILES CC(C)C[C@H](NC(=O)[C@H](Cc1c[nH]c2ccccc12)NC(=O)[C@H](CCCNC(=N)N)NC(=O)[C@@H](NC(=O)[C@H](Cc1ccccc1)NC(=O)[C@H](CC(=O)O)NC(=O)[C@H](CCC(N)=O)NC(=O)[C@H](C)NC(=O)[C@H](CCCNC(=N)N)NC(=O)[C@H](CCCCNC(=O)COCCOCCNC(=O)COCCOCCNC(=O)CC[C@H](NC(=O)CCCCCCCCCCCCCCCCC(=O)O)C(=O)O)NC(=O)[C@H](CCCNC(=N)N)NC(=O)[C@H](CC(=O)O)NC(=O)[C@H](CC(C)C)NC(=O)[C@](C)(Cc1ccccc1)NC(=O)[C@H](CCCCN)NC(=O)[C@H](CO)NC(=O)[C@@H](NC(=O)[C@H](CC(=O)O)NC(=O)[C@H](CO)NC(=O)[C@@H](NC(=O)[C@H](Cc1ccccc1)NC(=O)[C@@H](NC(=O)CNC(=O)[C@H](CCC(N)=O)NC(=O)C(C)(C)NC(=O)[C@@H](N)Cc1c[nH]cn1)[C@@H](C)O)[C@@H](C)O)C(C)C)C(C)C)C(=O)N[C@@H](CC(C)C)C(=O)NC(C)(C)C(=O)N[C@H](C(=O)N[C@@H](CCC(=O)O)C(N)=O)[C@@H](C)O) [Peptide 422]
